For test [1], the target named is T1, full-length human Notch3 expressed on the cell surface (human, UniProt Q9UM47 40-2321). In words: cell-based or functional assay.
For a further test, the target named is T2, human Notch1 NRR-Fc (human, UniProt P46531 1446-1733, limits assumed).
T2 construct: domain: NRR region; Made in CHO-PACE cells; not shown: human IgG1 Fc fragment
T2 sequence (looked up): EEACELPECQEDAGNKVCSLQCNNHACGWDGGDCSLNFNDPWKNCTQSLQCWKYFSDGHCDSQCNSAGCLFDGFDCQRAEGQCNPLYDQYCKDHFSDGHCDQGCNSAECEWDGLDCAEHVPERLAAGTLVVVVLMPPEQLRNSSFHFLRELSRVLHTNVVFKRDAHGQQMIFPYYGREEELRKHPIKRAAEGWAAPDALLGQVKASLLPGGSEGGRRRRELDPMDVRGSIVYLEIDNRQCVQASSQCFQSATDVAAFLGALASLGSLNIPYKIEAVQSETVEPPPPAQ
Briefly: ELISA: NRR-Fc protein coated at 1 ug/ml, antibody applied at 5 ug/ml, goat anti-human Fc-HRP, TMB, O.D. 450 nM.

For another test, the target named is Notch3-NRR (human). Described as above.
Test [2] addresses T3, human Notch3 NRR recombinant protein (Notch3 NRR_Avi_His tag) (human).
T3 construct: Purified from CHO-PACE cells; the entry includes the C-terminal Avi and His6 tag
T3 chain: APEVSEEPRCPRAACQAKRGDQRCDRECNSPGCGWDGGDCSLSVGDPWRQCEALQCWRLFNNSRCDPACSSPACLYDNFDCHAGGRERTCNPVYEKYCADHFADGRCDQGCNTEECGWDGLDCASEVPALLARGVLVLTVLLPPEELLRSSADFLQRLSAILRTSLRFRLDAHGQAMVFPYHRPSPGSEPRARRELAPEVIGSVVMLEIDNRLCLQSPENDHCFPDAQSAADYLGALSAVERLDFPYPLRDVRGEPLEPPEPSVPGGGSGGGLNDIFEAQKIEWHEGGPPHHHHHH
Briefly: SPR (Biacore T100), antibody captured on anti-human IgG-Fc, Notch3 NRR as analyte, 1:1 Langmuir fit. (SPR reads the build-up and loss of mass on a sensor chip optically.)
Method: The kinetic constants of the anti-Notch3 NRR interactions were determined by surface plasmon resonance (Biacore® T100, Biacore Inc., Piscataway, N.J.). Flow cells of a CM5 chip were immobilized with approximately 10,000 response units (RU) of anti-human IgG-Fc (Biacore®) in 10 mM Glycine, pH 5.0 at 10 μl/min for 600 seconds. […] Association of four concentrations of human Notch3 NRR recombinant protein (from 3.7-100 nM) and a zero concentration (running buffer) at 100 μl/min were recorded for 3 minutes in TBS with 1 mM CaCl₂. Dissociation of the complexes was measured for 10 minutes. The surface of the chip was regenerated by injecting 3M MgCl₂ with 3 mM EGTA for 60 seconds at 10 μl/min. Curves obtained after subtraction of the reference and buffer signals were fitted to a 1:1 Langmuir binding model with Biacore® T100 Evaluation Software (Biacore®).

The target of test [3] is T1, full-length human Notch3 expressed on …. In words: competition ELISA on U2OS/hNotch3 cells; competitor 0.8 nM biotinylated ch75. A general note: ELISA stands for enzyme-linked immunosorbent assay.
Method: (§1) 96 well cell culture plates were seeded with U2OS/hNotch3 cells (cell culture plate, Co-star). […] After incubation for 2 hours, the plates were washed, as described above, and HRP-conjugated streptavidin (Southern Biotech) diluted 1:5000 in blocking buffer was applied. After incubation with streptavidin for 30 minutes, the plates were washed again before being developed with TMB solution for 10 minutes. […] Data plotting and analyses were performed with Microsoft Excel and Graphpad-Prism software.
Test [4] deals with T4, full-length mouse Notch3 expressed on the cell surface (mouse, UniProt Q61982 40-2318).
T4 construct: whole, on cells; Over-expressed on U-2 OS cells; also called U2OS/mNotch3
In words: cell-based ELISA, U2OS/mNotch3 cells.
Method: (§2) U-2 OS cells stably over-expressing human or mouse full length Notch3 protein on cell surface (hereinafter U2OS/hNotch3 and U2OS/mNotch3, respectively) were plated at 50,000 cells/well in 96 well plates (white opaque, BD/VWR) the day before ELISA assay. On the day of the ELISA, culture media was removed from wells and serially diluted (1:3 in blocking buffer) antibody solutions were applied to the plate. Plates were incubated at room temperature for 2 hours before being washed with PBS-Mg/Ca. HRP-conjugated secondary antibody was then applied and incubated with cells for 1 hour as described above for recombinant protein ELISA. Plates were washed with PBS-Mg/Ca before being developed with Pico-Chemiluminescent developing kit (Thermal Scientific), and chemiluminescence measurements were performed per manufacturer's instructions. Data plotting and analyses were performed with Microsoft Excel and Graphpad-Prism software.

Test [5] concerns the target T1, full-length human Notch3 expressed on …. Briefly: cell-based ELISA, U2OS/hNotch3 cells.
Method: as §2
The target of test [6] is T3, human Notch3 NRR recombinant protein …. Briefly: ELISA, plate-coated recombinant protein.
Method: Purified human or mouse Notch3 NRR recombinant proteins were coated on CoStar hi-bound 96-well ELISA plates in 100 μl of PBS with Mg/Ca at a concentration of 1 μg/ml overnight. The plates were washed with PBS-Mg/Ca and blocked for 1 hour with 1% BSA in PBS-Mg/Ca. Blocking solution was decanted from the plate and 1:3 serial dilutions of antibodies in blocking solutions were applied to the plate. After incubation at room temperature for 1 hour, plates were washed again with PBS-Mg/Can before HRP (horse radish peroxidase)-conjugated secondary antibody diluted (1:20,000) in blocking buffer was applied. When the primary antibody tested was rat IgG, the secondary antibody was goat anti-rat IgG Fc (Bethyl Biotech); and when the primary antibody was human IgG, the secondary antibody was goat anti-human IgG Fc (Southern Biotech).
After 1 hour incubation with the secondary antibody, plates were washed again, as described above, and TMB substrate solution was added. The developing reaction was allowed for 10 minutes before the stopping solution, 0.18M H₂SO₄, was added.
Test [7] has the same target. Briefly: ELISA, recombinant protein, hybridoma supernatant.
Test [8] addresses T5, mouse Notch3 NRR recombinant protein (Notch3 NRR_Avi_His tag) (mouse).
T5 construct: The entry includes the C-terminal Avi and His tag; S1-cleaved heterodimer as for the human protein
T5 chain: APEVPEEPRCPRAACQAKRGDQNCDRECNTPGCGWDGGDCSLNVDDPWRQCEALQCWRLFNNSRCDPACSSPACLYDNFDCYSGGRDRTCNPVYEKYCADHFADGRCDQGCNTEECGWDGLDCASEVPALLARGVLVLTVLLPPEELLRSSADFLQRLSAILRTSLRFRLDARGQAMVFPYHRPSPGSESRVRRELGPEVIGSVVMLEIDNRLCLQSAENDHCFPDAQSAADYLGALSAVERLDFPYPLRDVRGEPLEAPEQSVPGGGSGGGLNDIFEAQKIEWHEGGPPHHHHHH
In words: ELISA, recombinant protein, hybridoma supernatant.

Test [9] deals with T1, full-length human Notch3 expressed on …. In words: competition ELISA on U2OS/hNotch3 cells; competitor 0.8 nM biotinylated ch28.
Method: as §1
Test [10] has the same target. Briefly: cell-based ELISA, HCC2429 cells; SD 0.009.
Method: (§3) On the day of the ELISA, culture media was removed from wells and serially diluted (1:3 in DPBS with calcium chloride and magnesium chloride (Ca/Mg) and 1% BSA) antibody and ADC solutions were applied to the plate. Plates were incubated at room temperature for 2 hours before washed with DPBS with Ca/Mg and 1% BSA. HRP-conjugated secondary antibody was then applied and incubated with cells for 1 hour. Plates were washed with DPBS with Ca/Mg and 1% BSA before being developed with Pico-Chemiluminescent developing kit (Thermal Scientific), and chemiluminescence measurements were performed per manufacturer's instructions. Data plotting and analyses were performed with Microsoft Excel and Graphpad-Prism software.
The target is the same in test [11]. Briefly: cell-based ELISA, MDA-MB-468 cells; SD 0.054.
Method: as §3
Test [12] has the same target. In words: cell-based ELISA, U2OS/hNotch3 cells; SD 0.077.
Method: as §3

T1 sequence (Q9UM47 40-2321): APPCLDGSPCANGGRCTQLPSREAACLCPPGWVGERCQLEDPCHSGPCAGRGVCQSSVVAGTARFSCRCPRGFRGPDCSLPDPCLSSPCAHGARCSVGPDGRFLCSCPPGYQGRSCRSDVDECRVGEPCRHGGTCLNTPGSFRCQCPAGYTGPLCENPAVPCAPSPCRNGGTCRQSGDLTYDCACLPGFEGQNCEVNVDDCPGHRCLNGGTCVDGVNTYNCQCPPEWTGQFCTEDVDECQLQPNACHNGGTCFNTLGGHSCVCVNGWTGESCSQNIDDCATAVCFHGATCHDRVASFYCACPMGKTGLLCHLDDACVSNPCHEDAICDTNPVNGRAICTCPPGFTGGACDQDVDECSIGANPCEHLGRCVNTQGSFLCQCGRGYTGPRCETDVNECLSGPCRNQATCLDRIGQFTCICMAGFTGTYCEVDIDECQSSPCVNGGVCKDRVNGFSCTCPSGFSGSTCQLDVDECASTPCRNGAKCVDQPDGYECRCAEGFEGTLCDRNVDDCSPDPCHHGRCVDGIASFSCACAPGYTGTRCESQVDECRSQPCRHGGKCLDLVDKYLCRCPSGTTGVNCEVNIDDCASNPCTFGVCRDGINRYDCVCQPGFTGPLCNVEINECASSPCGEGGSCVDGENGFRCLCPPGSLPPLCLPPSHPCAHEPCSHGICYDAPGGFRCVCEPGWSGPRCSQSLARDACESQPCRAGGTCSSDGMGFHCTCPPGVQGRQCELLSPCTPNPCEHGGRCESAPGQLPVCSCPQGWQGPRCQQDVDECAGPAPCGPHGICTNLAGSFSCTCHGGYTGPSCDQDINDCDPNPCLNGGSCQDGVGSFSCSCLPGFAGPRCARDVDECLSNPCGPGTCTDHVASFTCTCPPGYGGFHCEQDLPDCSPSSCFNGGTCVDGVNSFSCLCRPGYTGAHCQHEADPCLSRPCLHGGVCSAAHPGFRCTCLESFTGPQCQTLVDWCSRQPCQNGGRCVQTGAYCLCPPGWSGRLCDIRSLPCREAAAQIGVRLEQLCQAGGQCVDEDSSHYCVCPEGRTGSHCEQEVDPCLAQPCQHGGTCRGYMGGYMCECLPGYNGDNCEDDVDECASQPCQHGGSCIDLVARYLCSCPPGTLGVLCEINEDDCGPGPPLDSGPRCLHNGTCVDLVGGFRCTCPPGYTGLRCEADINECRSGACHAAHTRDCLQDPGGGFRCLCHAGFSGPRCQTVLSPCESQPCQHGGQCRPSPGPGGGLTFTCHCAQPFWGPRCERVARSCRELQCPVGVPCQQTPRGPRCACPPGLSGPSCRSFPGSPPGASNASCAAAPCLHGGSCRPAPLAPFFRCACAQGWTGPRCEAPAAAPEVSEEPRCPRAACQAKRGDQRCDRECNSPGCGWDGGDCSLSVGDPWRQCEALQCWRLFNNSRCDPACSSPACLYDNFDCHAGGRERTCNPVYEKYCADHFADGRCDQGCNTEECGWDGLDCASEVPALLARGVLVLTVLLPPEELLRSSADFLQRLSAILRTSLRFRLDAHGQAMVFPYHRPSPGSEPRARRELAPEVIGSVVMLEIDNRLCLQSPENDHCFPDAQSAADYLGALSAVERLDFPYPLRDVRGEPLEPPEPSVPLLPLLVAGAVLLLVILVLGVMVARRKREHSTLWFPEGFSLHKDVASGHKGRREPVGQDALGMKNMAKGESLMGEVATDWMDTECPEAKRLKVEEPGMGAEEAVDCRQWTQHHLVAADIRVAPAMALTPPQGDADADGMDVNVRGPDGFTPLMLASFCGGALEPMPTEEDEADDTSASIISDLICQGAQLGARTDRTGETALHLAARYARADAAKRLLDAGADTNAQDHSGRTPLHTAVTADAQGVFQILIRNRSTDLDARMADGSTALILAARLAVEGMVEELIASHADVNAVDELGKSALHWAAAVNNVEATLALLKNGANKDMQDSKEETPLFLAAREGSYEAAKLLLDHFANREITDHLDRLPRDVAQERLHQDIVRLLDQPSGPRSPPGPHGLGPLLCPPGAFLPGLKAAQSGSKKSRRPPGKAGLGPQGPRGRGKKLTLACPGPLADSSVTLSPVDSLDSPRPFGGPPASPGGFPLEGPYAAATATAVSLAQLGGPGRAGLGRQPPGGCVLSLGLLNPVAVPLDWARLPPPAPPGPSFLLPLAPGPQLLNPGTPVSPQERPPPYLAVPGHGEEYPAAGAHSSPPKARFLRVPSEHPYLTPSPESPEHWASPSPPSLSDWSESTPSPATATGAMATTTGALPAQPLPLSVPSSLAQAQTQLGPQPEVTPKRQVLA
T4 sequence (Q61982 40-2318): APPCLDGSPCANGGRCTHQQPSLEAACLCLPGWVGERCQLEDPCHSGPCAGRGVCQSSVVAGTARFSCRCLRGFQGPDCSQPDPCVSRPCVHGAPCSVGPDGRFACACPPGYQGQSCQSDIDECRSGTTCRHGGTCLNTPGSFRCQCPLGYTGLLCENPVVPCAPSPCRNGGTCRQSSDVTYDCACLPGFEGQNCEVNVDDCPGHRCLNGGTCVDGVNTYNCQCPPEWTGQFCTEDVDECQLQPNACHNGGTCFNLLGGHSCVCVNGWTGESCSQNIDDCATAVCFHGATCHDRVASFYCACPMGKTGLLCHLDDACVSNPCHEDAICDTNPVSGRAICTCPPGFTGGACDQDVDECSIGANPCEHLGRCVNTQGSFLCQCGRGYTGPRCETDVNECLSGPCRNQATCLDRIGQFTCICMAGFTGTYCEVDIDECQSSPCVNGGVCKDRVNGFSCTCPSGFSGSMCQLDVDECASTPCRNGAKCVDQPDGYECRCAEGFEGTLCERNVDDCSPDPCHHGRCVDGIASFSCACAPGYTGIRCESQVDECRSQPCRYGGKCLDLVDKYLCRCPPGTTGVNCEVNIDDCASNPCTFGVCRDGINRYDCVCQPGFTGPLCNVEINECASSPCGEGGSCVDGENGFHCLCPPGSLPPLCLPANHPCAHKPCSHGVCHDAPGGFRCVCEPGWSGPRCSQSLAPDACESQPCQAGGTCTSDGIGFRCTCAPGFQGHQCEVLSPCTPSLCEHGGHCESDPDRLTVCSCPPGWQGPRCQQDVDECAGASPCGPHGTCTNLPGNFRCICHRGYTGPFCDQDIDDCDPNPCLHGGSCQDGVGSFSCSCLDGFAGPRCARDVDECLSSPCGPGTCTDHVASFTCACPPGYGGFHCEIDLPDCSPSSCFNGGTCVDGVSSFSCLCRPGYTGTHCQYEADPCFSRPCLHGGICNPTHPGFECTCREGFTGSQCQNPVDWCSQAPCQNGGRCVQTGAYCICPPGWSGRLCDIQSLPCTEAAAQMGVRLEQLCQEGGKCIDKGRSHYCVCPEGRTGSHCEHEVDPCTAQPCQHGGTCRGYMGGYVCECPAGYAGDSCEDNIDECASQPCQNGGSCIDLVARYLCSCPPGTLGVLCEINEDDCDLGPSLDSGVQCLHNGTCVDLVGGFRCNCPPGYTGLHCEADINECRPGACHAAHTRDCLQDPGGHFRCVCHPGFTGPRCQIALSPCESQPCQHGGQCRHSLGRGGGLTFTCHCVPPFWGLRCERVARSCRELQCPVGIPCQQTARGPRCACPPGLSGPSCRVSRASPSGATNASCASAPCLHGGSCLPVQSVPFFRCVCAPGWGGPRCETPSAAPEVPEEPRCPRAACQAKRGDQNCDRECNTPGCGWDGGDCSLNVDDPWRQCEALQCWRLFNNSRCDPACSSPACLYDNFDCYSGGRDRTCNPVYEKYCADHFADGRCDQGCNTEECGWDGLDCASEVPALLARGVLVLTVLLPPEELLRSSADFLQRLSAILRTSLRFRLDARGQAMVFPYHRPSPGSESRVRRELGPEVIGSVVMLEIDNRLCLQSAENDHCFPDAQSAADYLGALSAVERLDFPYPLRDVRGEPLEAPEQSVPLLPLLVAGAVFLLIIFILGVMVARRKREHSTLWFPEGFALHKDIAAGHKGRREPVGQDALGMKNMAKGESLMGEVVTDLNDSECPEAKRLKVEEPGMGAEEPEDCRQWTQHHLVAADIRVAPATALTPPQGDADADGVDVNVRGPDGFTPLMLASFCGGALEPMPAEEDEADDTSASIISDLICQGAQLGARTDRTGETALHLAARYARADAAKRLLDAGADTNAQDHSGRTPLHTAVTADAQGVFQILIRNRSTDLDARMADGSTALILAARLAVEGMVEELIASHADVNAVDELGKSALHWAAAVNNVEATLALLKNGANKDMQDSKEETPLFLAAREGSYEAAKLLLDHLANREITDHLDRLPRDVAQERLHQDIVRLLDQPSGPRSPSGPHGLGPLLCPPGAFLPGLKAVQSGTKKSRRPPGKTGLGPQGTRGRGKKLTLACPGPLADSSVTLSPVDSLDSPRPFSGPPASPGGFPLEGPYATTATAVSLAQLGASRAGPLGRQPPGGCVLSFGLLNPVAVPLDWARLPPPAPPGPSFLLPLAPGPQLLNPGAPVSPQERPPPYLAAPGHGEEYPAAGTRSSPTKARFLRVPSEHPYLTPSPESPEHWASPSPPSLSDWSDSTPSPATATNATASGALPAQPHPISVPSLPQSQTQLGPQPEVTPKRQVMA
Method for Notch3-NRR: (§4) After 1 hour of incubation, plates were washed with PBS with 0.9 mM Mg²⁺ and Ca²⁺, before secondary goat anti-human Fc antibody conjugated with HRP were applied and incubated on the plates. After washing again, the plates were developed with TMB and the developing reactions were stopped by adding 0.18M H₂SO₄.
Method for human Notch1 NRR-Fc: as §4

B1: ch75-mc0131 (Notch3-75-cG1-(C)_mc-0#118) (antibody, V domains shown)
VH: QVKLLQSGAALVKPGASVKMSCKASGYAFTDYWVTWVKQSHGKSLEWIGEISPNSGGTNFNEKFKGKATLTVDKSTSTAYMELSRLTSEDSAIYYCTRGEIRYNWFAYWGQGTLVTVSS
VL: DIQMTQSPSSLSASVGDRVTITCKASQNVGNNIAWYQQKPGKAPKLLIYYASNRYTGVPSRFSGSGYGTDFTLTISSLQPEDFATYYCQRLYNSPFTFGGGTKVEIK
On to B1, for which, in test [1], the “IC50 of cytotoxicity (MTS viability), OVCAR3 cells” value (shortened to “IC50 of cytotoxicity … OVCAR3 cells”) came to 289 ng Ab/mL and the “IC50 of cytotoxicity (MTS viability), U2OS/hNotch3 cells” value is 19 ng Ab/mL.

B2: ch75-me0131 (Notch3-75-cG1-(C)_me-0#118) (antibody, V domains shown)
VH: QVKLLQSGAALVKPGASVKMSCKASGYAFTDYWVTWVKQSHGKSLEWIGEISPNSGGTNFNEKFKGKATLTVDKSTSTAYMELSRLTSEDSAIYYCTRGEIRYNWFAYWGQGTLVTVSS
VL: DIQMTQSPSSLSASVGDRVTITCKASQNVGNNIAWYQQKPGKAPKLLIYYASNRYTGVPSRFSGSGYGTDFTLTISSLQPEDFATYYCQRLYNSPFTFGGGTKVEIK
With B2, the “IC50 of cytotoxicity (MTS viability), MDA-MB-468 cells” value in test [1] was 259 ng Ab/mL.

B3: ch75-vc6780 (Notch3-75-cG1-(C)_mcValCitPABC-#112) (antibody, V domains shown)
VH: QVKLLQSGAALVKPGASVKMSCKASGYAFTDYWVTWVKQSHGKSLEWIGEISPNSGGTNFNEKFKGKATLTVDKSTSTAYMELSRLTSEDSAIYYCTRGEIRYNWFAYWGQGTLVTVSS
VL: DIQMTQSPSSLSASVGDRVTITCKASQNVGNNIAWYQQKPGKAPKLLIYYASNRYTGVPSRFSGSGYGTDFTLTISSLQPEDFATYYCQRLYNSPFTFGGGTKVEIK
As to B3, the “IC50 of cytotoxicity … OVCAR3 cells” value in test [1] stood at 922 ng Ab/mL.

B4: rat-human chimeric antibody 75 (ch75) (antibody, V domains shown)
VH: QVKLLQSGAALVKPGASVKMSCKASGYAFTDYWVTWVKQSHGKSLEWIGEISPNSGGTNFNEKFKGKATLTVDKSTSTAYMELSRLTSEDSAIYYCTRGEIRYNWFAYWGQGTLVTVSS
VL: NIVMTQSPKSMSISVGDRVTMNCKASQNVGNNIAWYQQKPGQSPKLLIYYASNRYTGVPDRFTGGGYGTDFTLTINSMQAEDAAFYYCQRLYNSPFTFGSGTKLEIK
notes: also called ch75-hIgG1; ch75-hulgG1
The term Kd denotes the constant that tells how readily two partners part at equilibrium. The term koff denotes the first-order rate constant of dissociation. As a reminder, the kon is the rate constant with which the complex forms. In general, EC50 refers to the concentration needed to bring the measured effect to its halfway point. With B4, the binding result with human Notch1 NRR-Fc is recorded as “no binding (tested: 5 ug/ml)”; in [4], “no binding”. Also, the “O.D. 450 nM (ELISA, relative binding capacity)” value with Notch3-NRR is 1.72. Further, the Kd in [2] was determined as 17.4 nM. The koff in test [2] stood at 0.000992 s⁻¹. Also, the kon in test [2] was 57000 M⁻¹ s⁻¹. For the same molecule, the figures for the EC50 in [3], in test [5] and in test [6] were 1.3 nM, 0.2 nM and at most 1 nM, respectively.

B5: ch75-mc3377 (Notch3-75-cG1-(C)_mc-#115) (antibody, V domains shown)
VH: QVKLLQSGAALVKPGASVKMSCKASGYAFTDYWVTWVKQSHGKSLEWIGEISPNSGGTNFNEKFKGKATLTVDKSTSTAYMELSRLTSEDSAIYYCTRGEIRYNWFAYWGQGTLVTVSS
VL: DIQMTQSPSSLSASVGDRVTITCKASQNVGNNIAWYQQKPGKAPKLLIYYASNRYTGVPSRFSGSGYGTDFTLTISSLQPEDFATYYCQRLYNSPFTFGGGTKVEIK
Turning to B5, the “IC50 of cytotoxicity (MTS viability), MDA-MB-468 cells” value in test [1] was found to be 560 ng Ab/mL.

B6: ch28-me0131 (Notch3-28-cG1-(C)_me-0#118) (antibody, V domains shown)
VH: EVQLVESGGGLVQPGRSLTLSCVASGFTFRDYGMTWIRQAPGKGLTWVAYISSGSNYIYYAEAVKGRFTISRDNAKNTLYLQMTSLRSEDTALYFCTRRGPFVLDAWGQGASVTVSS
VL: DIQMTQSPSFLSASVGDRVTINCKASQSINRYLHWFQQKLGEAPKLLIYNANGLQTGIPSRFSGSGSGTDFTLTISSLQSEDVATYFCLQHNTWPDTFGAGTKLELK
Regarding B6, the “IC50 of cytotoxicity (MTS viability), HCC2429 cells” value in test [1] was found to be 30 ng Ab/mL.

B7: parental rat clone 28 (r28) (antibody, V domains shown)
VH: EVQLVESGGGLVQPGRSLTLSCVASGFTFRDYGMTWIRQAPGKGLTWVAYISSGSNYIYYAEAVKGRFTISRDNAKNTLYLQMTSLRSEDTALYFCTRRGPFVLDAWGQGASVTVSS
VL: DIQMTQSPSFLSASVGDRVTINCKASQSINRYLHWFQQKLGEAPKLLIYNANGLQTGIPSRFSGSGSGTDFTLTISSLQSEDVATYFCLQHNTWPDTFGAGTKLELK
notes: Rat monoclonal antibody from hybridoma, tested as hybridoma supernatant
Take B7: the “O.D. 450 nM” value in test [7] and in [8] was at least 1 O.D. 450 nM throughout.

B8: ch28-vc0101 (Notch3-28-cG1-(C)_mcValCitPABC-#54) (antibody, V domains shown)
VH: EVQLVESGGGLVQPGRSLTLSCVASGFTFRDYGMTWIRQAPGKGLTWVAYISSGSNYIYYAEAVKGRFTISRDNAKNTLYLQMTSLRSEDTALYFCTRRGPFVLDAWGQGASVTVSS
VL: DIQMTQSPSFLSASVGDRVTINCKASQSINRYLHWFQQKLGEAPKLLIYNANGLQTGIPSRFSGSGSGTDFTLTISSLQSEDVATYFCLQHNTWPDTFGAGTKLELK
On to B8, for which the “IC50 of cytotoxicity … OVCAR3 cells” value in test [1] turned out to be 635 ng Ab/mL.

B9: hu28 (humanized r28 variant VH1.0/VL1.0) (antibody, human IgG1, kappa, V domains shown)
VH: EVQLVESGGGLVQPGGSLRLSCAASGFTFRDYGMTWVRQAPGKGLEWVAYISSGSNYIYYAEAVKGRFTISRDNAKNSLYLQMNSLRAEDTAVYYCARRGPFVLDAWGQGTLVTVSS
VL: DIQMTQSPSSLSASVGDRVTITCKASQSINRYLHWYQQKPGKAPKLLIYNANGLQTGVPSRFSGSGSGTDFTLTISSLQPEDFATYYCLQHNTWPDTFGGGTKVEIKR
notes: Human IgG1/kappa; also called hu28 VH1.0/VL1.0; hu28 VH1.0/V1.0
For B9, the equilibrium dissociation constant (Kd) in test [2] is 0.9 nM. Also, the koff in test [2] was 0.000347 s⁻¹. Also, in [2], the kon stood at 386000 M⁻¹ s⁻¹. The EC50 in [9] was determined as 3.1 nM; in [10] it was 0.132 nM; in [11], 0.192 nM; in [12], 0.172 nM; in test [4], 0.13 nM; in test [5], 0.093 nM.

(Values after US20140127211A1 (Pfizer, published 2014).)
